Experimental data as given in US20240391954A1, “MC4R AGONIST PEPTIDES” (The Regents of the University of Michigan, priority 2021, published 2024).
Starred links: 1 amine or outer side, 2 acyl side, 3 side chain; linkers in the order of their positions; H or OH if unused. Positions of bridges follow the written chain, without caps; N, C: chain ends. Non-standard residues stand in square brackets, D forms with d. dTyr(4-OMe) = O-methyl-D-tyrosine (4-OMe), COc1ccc(C[C@@H](N[*:1])C(=O)[*:2])cc1; dPhe(4-Br) = N[C@H](Cc1ccc(Br)cc1)C(=O)O; 1Nal = N[C@@H](Cc1cccc2ccccc12)C(=O)O; d1Nal = N[C@H](Cc1cccc2ccccc12)C(=O)O; 2Pal = N[C@@H](Cc1ccccn1)C(=O)O; 3Pal = N[C@@H](Cc1cccnc1)C(=O)O; 4Pal = N[C@@H](Cc1ccncc1)C(=O)O; Cit = NC(=O)NCCC[C@H](N)C(=O)O; Nle = CCCC[C@H](N)C(=O)O; Orn = NCCC[C@H](N)C(=O)O

How the values were obtained:
Assay in all cases: cell-based or functional assay
human MC3R = human MC3R (human, UniProt P41968 1-323)
Chain of human MC3R (P41968 whole entry): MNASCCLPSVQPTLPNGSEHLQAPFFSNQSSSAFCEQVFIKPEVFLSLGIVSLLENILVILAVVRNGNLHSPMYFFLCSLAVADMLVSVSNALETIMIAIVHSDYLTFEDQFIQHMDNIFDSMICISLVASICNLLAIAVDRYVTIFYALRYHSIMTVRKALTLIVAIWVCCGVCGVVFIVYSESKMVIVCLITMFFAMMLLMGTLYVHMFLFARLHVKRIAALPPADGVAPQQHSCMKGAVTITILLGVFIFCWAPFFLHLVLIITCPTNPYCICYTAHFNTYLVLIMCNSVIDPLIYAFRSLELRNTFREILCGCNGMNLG

human MC4R receptor [1] = molecular target: T1, human MC4R receptor (human, UniProt P32245 1-332)
T1 sequence (P32245 whole entry): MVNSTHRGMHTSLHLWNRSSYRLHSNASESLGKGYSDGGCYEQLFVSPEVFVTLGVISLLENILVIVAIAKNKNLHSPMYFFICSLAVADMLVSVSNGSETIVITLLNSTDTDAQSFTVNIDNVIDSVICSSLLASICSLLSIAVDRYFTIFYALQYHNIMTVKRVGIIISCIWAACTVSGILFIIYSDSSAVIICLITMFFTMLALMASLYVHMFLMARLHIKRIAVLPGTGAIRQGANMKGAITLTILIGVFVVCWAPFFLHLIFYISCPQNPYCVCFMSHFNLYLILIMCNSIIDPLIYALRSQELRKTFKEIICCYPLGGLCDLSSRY

human MC4R receptor [2] = molecular target: T1, human MC4R receptor; remark: listed apart in the source

Binder | % max activation (human MC3R) | cAMP EC50 (human MC3R) | % max activation (human MC4R receptor [1]) | cAMP EC50 (human MC4R receptor [1]) | MC4R selectivity vs MC1R (human MC4R receptor [2]) | MC4R selectivity vs MC3R (human MC4R receptor [2])
Ac-R[Nle]CH[1Nal]RWC-NH2 (disulfide 3-8; SMILES CCCC[C@H](NC(=O)[C@H](CCCNC(=N)N)NC(C)=O)C(=O)N[C@H]1CSSC[C@@H](C(N)=O)NC(=O)[C@H](Cc2c[nH]c3ccccc23)NC(=O)[C@H](CCCNC(=N)N)NC(=O)[C@H](Cc2cccc3ccccc23)NC(=O)[C@H](Cc2c[nH]cn2)NC1=O) [CTX-1610] | 67% | 0.163 µM | 90% | 0.247 µM | 0.03 | 0.66
Ac-R[Nle]C[Cit][dF]R[dW]C-NH2 (disulfide 3-8; SMILES CCCC[C@H](NC(=O)[C@H](CCCNC(=N)N)NC(C)=O)C(=O)N[C@H]1CSSC[C@@H](C(N)=O)NC(=O)[C@@H](Cc2c[nH]c3ccccc23)NC(=O)[C@H](CCCNC(=N)N)NC(=O)[C@@H](Cc2ccccc2)NC(=O)[C@H](CCCNC(N)=O)NC1=O) [CTX-1608] | 19% | 0.274 µM | 79% | 0.288 µM | 2.07 | 0.95
Ac-R[Nle]C[Cit]FRWC-NH2 (disulfide 3-8; SMILES CCCC[C@H](NC(=O)[C@H](CCCNC(=N)N)NC(C)=O)C(=O)N[C@H]1CSSC[C@@H](C(N)=O)NC(=O)[C@H](Cc2c[nH]c3ccccc23)NC(=O)[C@H](CCCNC(=N)N)NC(=O)[C@H](Cc2ccccc2)NC(=O)[C@H](CCCNC(N)=O)NC1=O) [CTX-1609] | 65% | 0.407 µM | 96% | 0.086 µM | 4.15 | 4.72
Ac-R[Nle]C[2Pal][dF]RWC-NH2 (disulfide 3-8; SMILES CCCC[C@H](NC(=O)[C@H](CCCNC(=N)N)NC(C)=O)C(=O)N[C@H]1CSSC[C@@H](C(N)=O)NC(=O)[C@H](Cc2c[nH]c3ccccc23)NC(=O)[C@H](CCCNC(=N)N)NC(=O)[C@@H](Cc2ccccc2)NC(=O)[C@H](Cc2ccccn2)NC1=O) [CTX-1619] | 84% | 0.033 µM | 99% | 0.0026 µM | 86 | 13
Ac-R[Nle]CR[d1Nal]RWC-NH2 (disulfide 3-8; SMILES CCCC[C@H](NC(=O)[C@H](CCCNC(=N)N)NC(C)=O)C(=O)N[C@H]1CSSC[C@@H](C(N)=O)NC(=O)[C@H](Cc2c[nH]c3ccccc23)NC(=O)[C@H](CCCNC(=N)N)NC(=O)[C@@H](Cc2cccc3ccccc23)NC(=O)[C@H](CCCNC(=N)N)NC1=O) [CTX-1611] | 58% | 0.011 µM | 67% | 0.0016 µM | 0.25 | 6.61
Ac-R[Nle]CR[dF]R[dW]C-NH2 (disulfide 3-8) [CTX-1616] | 78% | 0.061 µM | 93% | 0.016 µM | 1.51 | 3.78
Ac-R[Nle]C[Orn][dF]RWC-NH2 (disulfide 3-8; SMILES CCCC[C@H](NC(=O)[C@H](CCCNC(=N)N)NC(C)=O)C(=O)N[C@H]1CSSC[C@@H](C(N)=O)NC(=O)[C@H](Cc2c[nH]c3ccccc23)NC(=O)[C@H](CCCNC(=N)N)NC(=O)[C@@H](Cc2ccccc2)NC(=O)[C@H](CCCN)NC1=O) [CTX-1617] | 102% | 0.0023 µM | 102% | 0.00021 µM | 1.75 | 11
Ac-R[Nle]C[3Pal][dF]RWC-NH2 (disulfide 3-8; SMILES CCCC[C@H](NC(=O)[C@H](CCCNC(=N)N)NC(C)=O)C(=O)N[C@H]1CSSC[C@@H](C(N)=O)NC(=O)[C@H](Cc2c[nH]c3ccccc23)NC(=O)[C@H](CCCNC(=N)N)NC(=O)[C@@H](Cc2ccccc2)NC(=O)[C@H](Cc2cccnc2)NC1=O) [CTX-1620] | 39% | 0.058 µM | 91% | 0.0047 µM | 47 | 12

The remaining lines, values ahead:

% max activation (human MC3R) | cAMP EC50 (human MC3R) | % max activation (human MC4R receptor [1]) | cAMP EC50 (human MC4R receptor [1]) | MC4R selectivity vs MC1R (human MC4R receptor [2]) | MC4R selectivity vs MC3R (human MC4R receptor [2]) | Binder
62% | 0.0039 µM | 73% | 0.0017 µM | 1.08 | 2.29 | Ac-R[Nle]CR[dPhe(4-Br)]RFC-NH2 (disulfide 3-8; SMILES CCCC[C@H](NC(=O)[C@H](CCCNC(=N)N)NC(C)=O)C(=O)N[C@H]1CSSC[C@@H](C(N)=O)NC(=O)[C@H](Cc2ccccc2)NC(=O)[C@H](CCCNC(=N)N)NC(=O)[C@@H](Cc2ccc(Br)cc2)NC(=O)[C@H](CCCNC(=N)N)NC1=O) [CTX-1623]
15% | 0.036 µM | 92% | 0.0029 µM | 82 | 13 | Ac-R[Nle]C[4Pal][dF]RWC-NH2 (disulfide 3-8; SMILES CCCC[C@H](NC(=O)[C@H](CCCNC(=N)N)NC(C)=O)C(=O)N[C@H]1CSSC[C@@H](C(N)=O)NC(=O)[C@H](Cc2c[nH]c3ccccc23)NC(=O)[C@H](CCCNC(=N)N)NC(=O)[C@@H](Cc2ccccc2)NC(=O)[C@H](Cc2ccncc2)NC1=O) [CTX-1621]
66% | 0.0056 µM | 83% | 0.012 µM | 0.15 | 0.47 | Ac-R[Nle]CR[dTyr(4-OMe)]RFC-NH2 (disulfide 3-8; SMILES CCCC[C@H](NC(=O)[C@H](CCCNC(=N)N)NC(C)=O)C(=O)N[C@H]1CSSC[C@@H](C(N)=O)NC(=O)[C@H](Cc2ccccc2)NC(=O)[C@H](CCCNC(=N)N)NC(=O)[C@@H](Cc2ccc(OC)cc2)NC(=O)[C@H](CCCNC(=N)N)NC1=O) [CTX-1624]
100% | 0.013 µM | 101% | 0.041 µM | 0.39 | 0.32 | Ac-R[Nle]CR[dF]RFC-NH2 (disulfide 3-8; SMILES CCCC[C@H](NC(=O)[C@H](CCCNC(=N)N)NC(C)=O)C(=O)N[C@H]1CSSC[C@@H](C(N)=O)NC(=O)[C@H](Cc2ccccc2)NC(=O)[C@H](CCCNC(=N)N)NC(=O)[C@@H](Cc2ccccc2)NC(=O)[C@H](CCCNC(=N)N)NC1=O) [CTX-1622]
